Data from patent publication US20090252727A1 (Eli Lilly, published 2009).
Substitutions are numbered along the chain they refer to.

T1: cynomologous monkey glucagon receptor (cynomologous monkey, UniProt P47871 27-477 (human entry))
T1 construct: Cloned receptor expressed in 293HEK cells; also called cyno GluR; cyno GlucR
T1 chain: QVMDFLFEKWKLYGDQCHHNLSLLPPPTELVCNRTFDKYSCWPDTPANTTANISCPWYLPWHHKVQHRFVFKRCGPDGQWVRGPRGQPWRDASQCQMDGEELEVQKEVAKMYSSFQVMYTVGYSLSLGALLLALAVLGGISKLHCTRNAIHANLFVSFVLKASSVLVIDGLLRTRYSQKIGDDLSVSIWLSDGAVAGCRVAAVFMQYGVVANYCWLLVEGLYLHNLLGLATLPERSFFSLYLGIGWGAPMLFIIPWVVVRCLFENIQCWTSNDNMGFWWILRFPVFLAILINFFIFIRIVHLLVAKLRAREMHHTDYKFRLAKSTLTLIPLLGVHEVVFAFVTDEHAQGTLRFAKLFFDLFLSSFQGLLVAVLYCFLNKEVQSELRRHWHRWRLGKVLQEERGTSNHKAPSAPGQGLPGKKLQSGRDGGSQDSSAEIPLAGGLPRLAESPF

T2: mouse glucagon receptor (mouse, UniProt Q61606 28-485)
T2 construct: Cloned receptor expressed in 293HEK cells; also called murine GluR; mouse GlucR
T2 chain: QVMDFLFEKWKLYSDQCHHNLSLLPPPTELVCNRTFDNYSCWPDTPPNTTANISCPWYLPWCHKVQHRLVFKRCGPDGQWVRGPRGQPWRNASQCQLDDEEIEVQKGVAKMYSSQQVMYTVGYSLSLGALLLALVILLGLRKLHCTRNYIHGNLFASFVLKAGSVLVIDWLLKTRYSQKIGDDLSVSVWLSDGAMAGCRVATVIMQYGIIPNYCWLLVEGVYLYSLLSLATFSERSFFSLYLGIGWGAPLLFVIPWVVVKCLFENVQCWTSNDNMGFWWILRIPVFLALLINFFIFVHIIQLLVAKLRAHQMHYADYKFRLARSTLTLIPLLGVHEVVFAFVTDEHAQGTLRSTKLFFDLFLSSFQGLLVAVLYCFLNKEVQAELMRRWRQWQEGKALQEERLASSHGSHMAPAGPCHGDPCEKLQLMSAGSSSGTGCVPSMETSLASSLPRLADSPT

B1: Fab fragment of antibody example 4 (Fab4) (Fab, V domains shown)
VH: QVQLQESGPGLVKPSETLSLTCTVSGDDITSGYHDWIRQPPGKGLEWIGYISYSGSTYYSPSLKSRVTISVDTSKNQFSLKLSSVTAADTAVYYCARPPGYYGFGPYALDYWGQGTLVTVSS
VL: DIQMTQSPSSLSASVGDRVTITCSASSSVSYIHWYQQKPGKAPKLLIYTTSYLAHGVPSRFSGSGSGTDFTLTISSLQPEDFATYYCQQRSTLPPTFGGGTKVEIKR
notes: Expressed in E. coli; Fab = VL+CL and VH+CH1 (Fc absent); not shown: His tag
B2: Antibody of example 4 (Ab4) (antibody, human IgG4 S228P, kappa, F234A L235A, V domains shown)
VH: B1 VH
VL: B1 VL
notes: Humanized full antibody with kappa light chain and modified human IgG4 Fc
B3: Antibody of example 7 (Ab7) (antibody, human IgG4 S228P, kappa, F234A L235A, V domains shown)
VH: B1 VH with D35E, Y58S, G100A
VL: B1 VL
notes: as for B2
B4: Fab fragment of antibody example 6 (Fab, V domains shown)
VH: B1 VH with G100A
VL: B1 VL
notes: Expressed in E. coli; Fab = VL+CL and VH+CH1 (Fc absent); also called Fab of Ab6; not shown: His tag
B5: Fab fragment of antibody example 5 (Fab, V domains shown)
VH: B1 VH with Y58Q
VL: B1 VL
notes: Expressed in E. coli; Fab = VL+CL and VH+CH1 (Fc absent); also called Fab of Ab5; not shown: His tag
B6: Antibody of example 5 (Ab5) (antibody, human IgG4 S228P, kappa, F234A L235A, V domains shown)
VH: B1 VH with Y58Q
VL: B1 VL
notes: as for B2
B7: Antibody of example 2 (Ab2) (antibody, human IgG4 S228P, kappa, F234A L235A, V domains shown)
VH: B1 VH with H34W, D35N, S60I, L109M
VL: B1 VL with A25Y, I32M, Y52N
notes: as for B2
B8: Antibody of example 1 (Ab1) (antibody, human IgG4 S228P, kappa, F234A L235A, V domains shown)
VH: B1 VH with H34W
VL: B1 VL with I32M, Y52N, Q89W
notes: as for B2
B9: Antibody of example 6 (Ab6) (antibody, human IgG4 S228P, kappa, F234A L235A, V domains shown)
VH: B1 VH with G100A
VL: B1 VL
notes: as for B2
B10: Fab fragment of antibody example 7 (Fab, V domains shown)
VH: B1 VH with D35E, Y58S, G100A
VL: B1 VL
notes: Expressed in E. coli; Fab = VL+CL and VH+CH1 (Fc absent); also called Fab of Ab7; not shown: His tag
B11: Fab fragment of antibody example 1 (Fab, V domains shown)
VH: B1 VH with H34W
VL: B1 VL with I32M, Y52N, Q89W
notes: Expressed in E. coli; Fab = VL+CL and VH+CH1 (Fc absent); also called Fab of Ab1; not shown: His tag
B12: Fab fragment of antibody example 3 (Fab, V domains shown)
VH: B1 VH with H34W
VL: B1 VL with Q88L
notes: Expressed in E. coli; Fab = VL+CL and VH+CH1 (Fc absent); also called Fab of Ab3; not shown: His tag
B13: Fab fragment of antibody example 2 (Fab, V domains shown)
VH: B1 VH with H34W, D35N, S60I, L109M
VL: B1 VL with A25Y, I32M, Y52N
notes: Expressed in E. coli; Fab = VL+CL and VH+CH1 (Fc absent); also called Fab of Ab2; not shown: His tag
B14: Antibody of example 3 (Ab3) (antibody, human IgG4 S228P, kappa, F234A L235A, V domains shown)
VH: B1 VH with H34W
VL: B1 VL with Q88L
notes: as for B2

target: T3, human glucagon receptor (human, UniProt P47871 27-477); assay: competition with [125I]glucagon, SPA, membranes of 293HEK cells expressing the receptor
T3 construct: Cloned receptor expressed in 293HEK cells; also called human GluR; human GlucR
Experimental: (§1) A competitive receptor/ligand binding experiment is adapted to a scintillation proximity assay (SPA) format. Incubations are performed in clear bottom, opaque 96-well microplates. Compound is serially diluted 3-fold in binding buffer consisting of 25 mM Hepes, pH 7.4, 2.5 mM CaCl₂, 1 mM MgCl₂, 0.1% fatty acid free BSA, 0.003% tween-20 and Complete^R EDTA-free protease inhibitor tablets. […] Plates are sealed with adhesive sealing tape, mixed end over end, and incubated at room temperature for 12 hours. The radioactivity bound to the receptor (in close proximity to the WGA SPA bead) is quantified on a PE Life and Analytical Sciences Trilux Microbeta plate scintillation counter and expressed as counts per minute (CPM).

| Binder | Ki |
| --- | --- |
| B1 | 0.0029 µM |
| B2 | 0.00134 µM |

target: T4, rat glucagon receptor (rat, UniProt P30082 28-485); assay: as above
T4 construct: Cloned receptor expressed in 293HEK cells; also called rat GluR; rat GlucR
Experimental: as §1

| Binder | Ki |
| --- | --- |
| B1 | 0.0033 µM |
| B2 | 0.00124 µM |

Target: T1, cynomologous monkey glucagon receptor
Assay: as above
Experimental: as §1

| Binder | Ki |
| --- | --- |
| B1 | 0.00942 µM |
| B2 | 0.006 µM |

Target: T2, mouse glucagon receptor
Assay: as above
Experimental: as §1

| Binder | Ki |
| --- | --- |
| B1 | 0.00243 µM |
| B2 | 0.00083 µM |

target: T3, human glucagon receptor; assay: as above; remark: another data set of the same source

| Binder | Ki |
| --- | --- |
| B1 | < 0.05 µM |
| B2 | < 0.05 µM |
| B3 | < 0.05 µM |
| B4 | < 0.05 µM |
| B5 | < 0.05 µM |
| B6 | < 0.05 µM |
| B7 | < 0.05 µM |
| B8 | < 0.05 µM |
| B9 | < 0.05 µM |
| B10 | < 0.05 µM |
| B11 | < 0.05 µM |
| B12 | < 0.05 µM |
| B13 | < 0.05 µM |
| B14 | < 0.05 µM |

target: T4, rat glucagon receptor; assay: as above; remark: another data set of the same source

| Binder | Ki |
| --- | --- |
| B1 | < 0.05 µM |
| B2 | < 0.05 µM |
| B3 | < 0.05 µM |
| B4 | < 0.05 µM |
| B5 | < 0.05 µM |
| B6 | < 0.05 µM |
| B7 | < 0.05 µM |
| B8 | < 0.05 µM |
| B9 | < 0.05 µM |
| B10 | < 0.05 µM |
| B11 | < 0.05 µM |
| B12 | < 0.05 µM |
| B13 | < 0.05 µM |
| B14 | < 0.05 µM |

Target: T1, cynomologous monkey glucagon receptor
Assay: as above
Remark: another data set of the same source

| Binder | Ki |
| --- | --- |
| B1 | < 0.05 µM |
| B2 | < 0.05 µM |
| B3 | < 0.05 µM |
| B4 | < 0.05 µM |
| B5 | < 0.05 µM |
| B6 | < 0.05 µM |
| B7 | < 0.05 µM |
| B8 | < 0.05 µM |
| B9 | < 0.05 µM |
| B10 | < 0.05 µM |
| B11 | < 0.05 µM |
| B12 | < 0.05 µM |
| B13 | < 0.05 µM |
| B14 | < 0.05 µM |

Target: T2, mouse glucagon receptor
Assay: as above
Remark: another data set of the same source

| Binder | Ki |
| --- | --- |
| B1 | < 0.05 µM |
| B2 | < 0.05 µM |
| B3 | < 0.05 µM |
| B4 | < 0.05 µM |
| B5 | < 0.05 µM |
| B6 | < 0.05 µM |
| B7 | < 0.05 µM |
| B8 | < 0.05 µM |
| B9 | < 0.05 µM |
| B10 | < 0.05 µM |
| B11 | < 0.05 µM |
| B12 | < 0.05 µM |
| B13 | < 0.05 µM |
| B14 | < 0.05 µM |
